Results as given in patent US5998172.
Blank lines part the entries; values can stand above or below the molecule they belong to.

Legend:
[1] = molecular target: activated leucocyte-cell adhesion molecule (ALCAM), CD6 ligand (human); test: indirect immunofluorescence and flow cytometry, cultured TE cells; control
[2] = molecular target: activated leucocyte-cell adhesion molecule (ALCAM), CD6 ligand (human); test: flow cytometry, TE cells after CD66 mAb; CD5-Rg subtracted
[3] = molecular target: activated leucocyte-cell adhesion molecule (ALCAM), CD6 ligand (human); test: flow cytometry, TE cells after CD51 mAb
[4] = molecular target: activated leucocyte-cell adhesion molecule (ALCAM), CD6 ligand (human); test: flow cytometry, TE cells after CD51 mAb; CD5-Rg subtracted
[5] = molecular target: activated leucocyte-cell adhesion molecule (ALCAM), CD6 ligand (human); test: flow cytometry, TE cells after mAb J4-81
[6] = molecular target: activated leucocyte-cell adhesion molecule (ALCAM), CD6 ligand (human); test: flow cytometry, TE cells after mAb J4-81; CD5-Rg subtracted
[7] = molecular target: activated leucocyte-cell adhesion molecule (ALCAM), CD6 ligand (human); test: flow cytometry, TE cells after CD9 mAb
[8] = molecular target: activated leucocyte-cell adhesion molecule (ALCAM), CD6 ligand (human); test: flow cytometry, TE cells after CD58 mAb
[9] = molecular target: activated leucocyte-cell adhesion molecule (ALCAM), CD6 ligand (human); test: flow cytometry, TE cells after CD54 mAb
[10] = molecular target: activated leucocyte-cell adhesion molecule (ALCAM), CD6 ligand (human); test: flow cytometry, TE cells after control mAb P3
[11] = molecular target: activated leucocyte-cell adhesion molecule (ALCAM), CD6 ligand (human); test: flow cytometry, TE cells after CD59 mAb; CD5-Rg subtracted
[12] = molecular target: activated leucocyte-cell adhesion molecule (ALCAM), CD6 ligand (human); test: flow cytometry, TE cells, 10 mM EDTA against DME with 5% FBS
[13] = molecular target: activated leucocyte-cell adhesion molecule (ALCAM), CD6 ligand (human)
[14] = molecular target: activated leucocyte-cell adhesion molecule (ALCAM), CD6 ligand (human); test: flow cytometry, TE cells after CD63 mAb
[15] = molecular target: activated leucocyte-cell adhesion molecule (ALCAM), CD6 ligand (human); test: flow cytometry, HBL-100 cells after mAb J4-81
[16] = molecular target: activated leucocyte-cell adhesion molecule (ALCAM), CD6 ligand (human); test: flow cytometry, HBL-100 cells after mAb J4-81; CD5-Rg subtracted
[17] = molecular target: activated leucocyte-cell adhesion molecule (ALCAM), CD6 ligand (human); test: flow cytometry, HBL-100 cells, 10 to 200 µg/ml
[18] = molecular target: activated leucocyte-cell adhesion molecule (ALCAM), CD6 ligand (human); test: flow cytometry, TE cells after CD24 mAb
[19] = molecular target: activated leucocyte-cell adhesion molecule (ALCAM), CD6 ligand (human); test: flow cytometry, TE cells, buffer with 5 mM CaCl2
[20] = molecular target: activated leucocyte-cell adhesion molecule (ALCAM), CD6 ligand (human); test: flow cytometry, TE cells after CD46 mAb; CD5-Rg subtracted
[21] = molecular target: activated leucocyte-cell adhesion molecule (ALCAM), CD6 ligand (human); test: flow cytometry, TE cells after CD63 mAb; CD5-Rg subtracted
[22] = molecular target: activated leucocyte-cell adhesion molecule (ALCAM), CD6 ligand (human); test: flow cytometry, TE cells after CD46 mAb
[23] = molecular target: activated leucocyte-cell adhesion molecule (ALCAM), CD6 ligand (human); test: flow cytometry, TE cells after CD24 mAb; CD5-Rg subtracted
[24] = molecular target: activated leucocyte-cell adhesion molecule (ALCAM), CD6 ligand (human); test: indirect immunofluorescence and flow cytometry, cultured TE cells
[25] = molecular target: activated leucocyte-cell adhesion molecule (ALCAM), CD6 ligand (human); test: flow cytometry, HBL-100 cells after control mAb P3; CD5-Rg subtracted
[26] = molecular target: activated leucocyte-cell adhesion molecule (ALCAM), CD6 ligand (human); test: flow cytometry, TE cells after control mAb P3; CD5-Rg subtracted
[27] = molecular target: activated leucocyte-cell adhesion molecule (ALCAM), CD6 ligand (human); test: flow cytometry, TE cells after CD54 mAb; CD5-Rg subtracted
[28] = molecular target: activated leucocyte-cell adhesion molecule (ALCAM), CD6 ligand (human); test: flow cytometry, TE cells after CD59 mAb
[29] = molecular target: activated leucocyte-cell adhesion molecule (ALCAM), CD6 ligand (human); test: flow cytometry, TE cells after CD58 mAb; CD5-Rg subtracted
[30] = molecular target: activated leucocyte-cell adhesion molecule (ALCAM), CD6 ligand (human); test: flow cytometry, TE cells after CD40 mAb; CD5-Rg subtracted
[31] = molecular target: activated leucocyte-cell adhesion molecule (ALCAM), CD6 ligand (human); test: flow cytometry, TE cells, buffer with 5 mM MnCl2
[32] = molecular target: activated leucocyte-cell adhesion molecule (ALCAM), CD6 ligand (human); test: flow cytometry, HBL-100 cells after control mAb P3
[33] = molecular target: activated leucocyte-cell adhesion molecule (ALCAM), CD6 ligand (human); test: flow cytometry, TE cells after CD66 mAb
[34] = molecular target: activated leucocyte-cell adhesion molecule (ALCAM), CD6 ligand (human); test: flow cytometry, TE cells after CD40 mAb
[35] = molecular target: activated leucocyte-cell adhesion molecule (ALCAM), CD6 ligand (human); test: flow cytometry, TE cells after CD9 mAb; CD5-Rg subtracted
[36] = molecular target: activated leucocyte-cell adhesion molecule (ALCAM), CD6 ligand (human); test: flow cytometry, TE cells, buffer with 5 mM MgCl2
[37] = molecular target: activated leucocyte-cell adhesion molecule (ALCAM), CD6 ligand (human); remark: listed apart in the source

Molecule: CD5-Rg fusion protein (from UniProt P06127) (Fc fusion)
MFC (linear mean fluorescence channel) [1]: 72.1

Molecule: ELAM1-Rg fusion protein (from UniProt P16581) (Fc fusion)
MFC (linear mean fluorescence channel) [1]: 70.5

Molecule: CD6-Rg fusion protein (CD6 receptor globulin) (from UniProt P30203) (Fc fusion)
Δ Fluorescence [2]: 56
% Binding [3]: 88%
% inhibition [3]: 12%
Δ Fluorescence [4]: 46
% Binding [5]: 40%
Δ Fluorescence [6]: 21
% Binding [7]: 115%
% inhibition [7]: -15%
% Binding [8]: 87%
% inhibition [8]: 13%
% Binding [9]: 85%
% inhibition [9]: 15%
% Binding [10]: 100%
% inhibition [10]: 0%
Δ Fluorescence [11]: 52
% inhibition of binding by 10 mM EDTA [12]: 54%
% Inhibition of thymocyte-thymic epithelial cell binding (rosettes) [13]: 34.5%
% Binding [14]: 102%
% inhibition [14]: -2%
% Binding [15]: 59%
Δ Fluorescence [16]: 34
saturating concentration [17]: 100 µg/mL
% Binding [18]: 92%
% inhibition [18]: 8%
relative binding with 5 mM CaCl2 [19]: 144%
Δ Fluorescence [20]: 57
Δ Fluorescence [21]: 53
% Binding [22]: 110%
% inhibition [22]: -10%
Δ Fluorescence [23]: 48
MFC (linear mean fluorescence channel) [24]: 165
Δ Fluorescence [25]: 58
Δ Fluorescence [26]: 52
Δ Fluorescence [27]: 44
% Binding [28]: 100%
% inhibition [28]: 0%
Δ Fluorescence [29]: 45
Δ Fluorescence [30]: 48
relative binding with 5 mM MnCl2 [31]: 318%
% Binding [32]: 100%
% inhibition [32]: 0%
% Binding [33]: 108%
% inhibition [33]: -8%
% Binding [34]: 92%
% inhibition [34]: 8%
Δ Fluorescence [35]: 60
relative binding with 5 mM MgCl2 [36]: 94%

Other lines, results leading:

MFC (linear mean fluorescence channel) [1]: 72.9
Molecule: human IgG1 (control)

% COS cells binding TE cells [37]: 25%
B1: CD6, P30203 (protein)
chain: HPSPAPPDQLNTSSAESELWEPGERLPVRLTNGSSSCSGTVEVRLEASWEPACGALWDSRAAEAVCRALGCGGAEAASQLAPPTPELPPPPAAGNTSVAANATLAGAPALLCSGAEWRLCEVVEHACRSDGRRARVTCAENRALRLVDGGGACAGRVEMLEHGEWGSVCDDTWDLEDAHVVCRQLGCGWAVQALPGLHFTPGRGPIHRDQVNCSGAEAYLWDCPGLPGQHYCGHKEDAGAVCSEHQSWRLTGGADRCEGQVEVHFRGVWNTVCDSEWYPSEAKVLCQSLGCGTAVERPKGLPHSLSGRMYYSCNGEELTLSNCSWRFNNSNLCSQSLAARVLCSASRSLHNLSTPEVPASVQTVTIESSVTVKIENKESRELMLLIPSIVLGILLLGSLIFIAFILLRIKGKYALPVMVNHQHLPTTIPAGSNSYQPVPITIPKEVFMLPIQVQAPPPEDSDSGSDSDYEHYDFSAQPPVALTTFYNSQRHRVTDEEVQQSRFQMPPLEEGLEELHASHIPTANPGHCITDPPSLGPQYHPRSNSESSTSSGEDYCNSPKSKLPPWNPQVFSSERSSFLEQPPNLELAGTQPAFSAGPPADDSSSTSSGEWYQNFQPPPQPPSEEQFGCPGSPSPQPDSTDNDDYDDISAA
